Laboratory results as given in paper PMC6150197, “NeoBOMB1, a GRPR-Antagonist for Breast Cancer Theragnostics: First Results of a Preclinical Study with [^67Ga]NeoBOMB1 in T-47D Cells and Tumor-Bearing Mice” (Molecules : A Journal of Synthetic Chemistry and Natural …, 2017).
Read-outs that look alike come from different tables or passages of the source.

Columns and labels:
[1] = tested on: T-47D Xenograft-Bearing SCID Mice; assay: in vivo; conditions: T-47D tumor, 4 h pi, mean ± sd, n = 4
Method: (§1) Female SCID mice (15 ± 3 g, six weeks of age animals at the day of arrival, NCSR “Demokritos” Animal House Facility) were acclimatized under aseptic conditions and treated with estrogens (receiving 4 mg/L β-estradiol, Sigma-Aldrich, St. Louis, MO, USA, in their drinking water,) for a week prior to inoculation. A ≈ 150 μL bolus containing a suspension of ≈1.2 × 10^7 freshly harvested human T-47D cells suspended in Matrigel (Corning Life Sciences, Inc., Bedford, MA, USA) was subcutaneously injected in their flanks. The animals were kept under estrogen treatment for additional 8 weeks till they developed well-palpable tumors (100–200 mg) at the inoculation sites.
(§2) On the day of the experiment animals were allowed access to water, but not to food. Animals in 3 groups of 4 received a 100 μL bolus of [^67Ga]NeoBOMB1 (37 kBq, corresponding to 10 pmol, or 200 pmol total peptide or 40 nmol for in vivo GRPR-blockade for each of the 3 groups) was injected in the tail vein; animals were euthanized at 4 h pi and dissected. Samples of blood, tumors and organs of interest were collected, weighed and measured for radioactivity in the gamma counter. Intestines and stomach were not emptied of their contents. In another experimental setting, mice in 3 groups of 4 received a 100 μL bolus of [^67Ga]NeoBOMB1 (37 kBq, 200 pmol); they were euthanized at 1 h, 4 h and 24 h pi and biodistribution was conducted as described above. Statistical analysis was conducted using the unpaired two-tailed Student’s t-test; values p < 0.05 were considered statistically significant.

[2] = in vivo; conditions: female, SCID, mouse, iv, total radioactivity, Biodistribution, mean ± sd, n = 4; for tissue uptake at 4 h: 4 h pi; for tissue uptake at 1 h: 1 h pi; for tissue uptake at 24 h: 24 h pi
Method: as §1, §2

[3] = male Swiss albino mice, iv 3 nmol total peptide, radio-HPLC
Method: [^67Ga]NeoBOMB1 was injected as a 100 μL bolus (11–22 MBq, 3 nmol total peptide) in the tail vein of male Swiss albino mice (30 ± 5 g, NCSR “Demokritos” Animal House Facility). Mice were anesthetized, and blood (0.5–1 mL) was collected from the heart at 5 and 30 min post injection (pi). Animals were euthanized and blood directly drawn from the heart was transferred in a pre-chilled EDTA-containing Eppendorf tube on ice. Blood samples were centrifuged for 10 min at 2000× g at 4 °C and plasma was collected. After addition of an equal volume of ice-cold MeCN the mixture was centrifuged for 10 min at 15,000× g at 4 °C. The supernatant was concentrated under a N2-flux at 40 °C to 0.05–0.1 mL, diluted with saline (0.4 mL), filtered through a 0.22 μm Millex GV filter (Millipore, Milford, MA, USA) and analyzed by RP-HPLC. The Symmetry Shield RP18 (5 μm, 3.9 mm × 20 mm) column was eluted at a flow rate of 1.0 mL/min with the following linear gradient: 100% A and 0% B to 50% A and 50% B in 50 min; (A = 0.1% aqueous TFA (v/v) and B = MeCN). The tR of the intact radiopeptide was determined by coinjection with the [^67Ga]NeoBOMB1 reference in the HPLC.

[4] = T-47D tumor, 200 pmol, Tumor, 200 pmol peptide (0.185 MBq/nmol) iv, Table 2 time study
[5] = blood, 200 pmol, 200 pmol peptide (0.185 MBq/nmol) iv, Table 2 time study
[6] = femur, 200 pmol, 200 pmol peptide (0.185 MBq/nmol) iv, Table 2 time study
[7] = heart, 200 pmol, 200 pmol peptide (0.185 MBq/nmol) iv, Table 2 time study
[8] = intestines (not emptied), 200 pmol, Intestines, 200 pmol peptide (0.185 MBq/nmol) iv, Table 2 time study
[9] = kidneys, 200 pmol, 200 pmol peptide (0.185 MBq/nmol) iv, Table 2 time study
[10] = liver, 200 pmol, 200 pmol peptide (0.185 MBq/nmol) iv, Table 2 time study
[11] = lungs, 200 pmol, 200 pmol peptide (0.185 MBq/nmol) iv, Table 2 time study
[12] = muscle, 200 pmol, 200 pmol peptide (0.185 MBq/nmol) iv, Table 2 time study
[13] = pancreas, 200 pmol, 200 pmol peptide (0.185 MBq/nmol) iv, Table 2 time study
[14] = spleen, 200 pmol, 200 pmol peptide (0.185 MBq/nmol) iv, Table 2 time study
[15] = stomach (not emptied), 200 pmol, Stomach, 200 pmol peptide (0.185 MBq/nmol) iv, Table 2 time study

CC(C)CC(CC(C)C)NC(=O)[C@H](Cc1cnc[nH]1)NC(=O)CNC(=O)[C@@H](NC(=O)[C@H](C)NC(=O)[C@H](Cc1c[nH]c2ccccc12)NC(=O)[C@H](CCC(N)=O)NC(=O)[C@@H](Cc1ccccc1)NC(=O)COCC(=O)Nc1ccc(CNC(=O)CN2CCN(CC(=O)O)CCN(CC(=O)O)CCN(CC(=O)O)CC2)cc1)C(C)C [[^67Ga]NeoBOMB1, metal not drawn]
Biodistribution, Tumor ([1]; 200 pmol peptide (0.185 MBq/nmol) iv, Table 2 time study): 8.68 ± 2.9 % ID/g
Biodistribution, Tumor ([1]; 40 nmol NeoBOMB1, in vivo GRPR-blockade, iv): 0.64 ± 0.10 % ID/g
tissue uptake at 4 h ([2]; T-47D tumor, 10 pmol, Tumor, 10 pmol peptide (3.7 MBq/nmol) iv): 9.52 ± 2.15 %ID/g
tissue uptake at 1 h [2, 4]: 7.4 ± 0.68 %ID/g
tissue uptake at 4 h ([2]; T-47D tumor, 200 pmol, Tumor, 200 pmol peptide (0.185 MBq/nmol) iv, Table 1 dose study): 7.79 ± 1.54 %ID/g
tissue uptake at 4 h [2, 4]: 8.67 ± 2.88 %ID/g
tissue uptake at 24 h [2, 4]: 7.89 ± 1.13 %ID/g
tissue uptake at 4 h ([2]; T-47D tumor, 40 nmol, Tumor, 40 nmol NeoBOMB1, in vivo GRPR-blockade): 0.6 ± 0.1 %ID/g
tissue uptake at 1 h [2, 5]: 5.78 ± 0.29 %ID/g
tissue uptake at 4 h [2, 5]: 0.52 ± 0.03 %ID/g
tissue uptake at 24 h [2, 5]: 0.15 ± 0.01 %ID/g
tissue uptake at 4 h ([2]; femur, 10 pmol, 10 pmol peptide (3.7 MBq/nmol) iv): 0.58 ± 0.06 %ID/g
tissue uptake at 1 h [2, 6]: 0.73 ± 0.11 %ID/g
tissue uptake at 4 h ([2]; femur, 200 pmol, 200 pmol peptide (0.185 MBq/nmol) iv, Table 1 dose study): 0.28 ± 0.01 %ID/g
tissue uptake at 4 h [2, 6]: 0.37 ± 0.02 %ID/g
tissue uptake at 24 h [2, 6]: 0.24 ± 0.08 %ID/g
tissue uptake at 4 h ([2]; femur, 40 nmol, 40 nmol NeoBOMB1, in vivo GRPR-blockade): 0.31 ± 0.02 %ID/g
tissue uptake at 4 h ([2]; heart, 10 pmol, 10 pmol peptide (3.7 MBq/nmol) iv): 0.26 ± 0.01 %ID/g
tissue uptake at 1 h [2, 7]: 1.94 ± 0.09 %ID/g
tissue uptake at 4 h ([2]; heart, 200 pmol, 200 pmol peptide (0.185 MBq/nmol) iv, Table 1 dose study): 0.34 ± 0.04 %ID/g
tissue uptake at 4 h [2, 7]: 0.52 ± 0.04 %ID/g
tissue uptake at 24 h [2, 7]: 0.22 ± 0.04 %ID/g
tissue uptake at 4 h ([2]; heart, 40 nmol, 40 nmol NeoBOMB1, in vivo GRPR-blockade): 0.38 ± 0.02 %ID/g
tissue uptake at 1 h [2, 8]: 10.6 ± 0.87 %ID/g
tissue uptake at 4 h [2, 8]: 18.5 ± 2.12 %ID/g
tissue uptake at 24 h [2, 8]: 2.31 ± 0.34 %ID/g
tissue uptake at 4 h ([2]; intestines, 10 pmol, Intestines (not emptied), 10 pmol peptide (3.7 MBq/nmol) iv): 16.7 ± 2.18 %ID/g
tissue uptake at 4 h ([2]; intestines, 200 pmol, Intestines (not emptied), 200 pmol peptide (0.185 MBq/nmol) iv, Table 1 dose study): 15.1 ± 1.52 %ID/g
tissue uptake at 4 h ([2]; intestines, 40 nmol, Intestines (not emptied), 40 nmol NeoBOMB1, in vivo GRPR-blockade): 11.1 ± 2.71 %ID/g
tissue uptake at 4 h ([2]; kidneys, 10 pmol, 10 pmol peptide (3.7 MBq/nmol) iv): 3.4 ± 0.45 %ID/g
tissue uptake at 1 h [2, 9]: 7.33 ± 0.47 %ID/g
tissue uptake at 4 h ([2]; kidneys, 200 pmol, 200 pmol peptide (0.185 MBq/nmol) iv, Table 1 dose study): 2.76 ± 0.26 %ID/g
tissue uptake at 4 h [2, 9]: 3.1 ± 0.75 %ID/g
tissue uptake at 24 h [2, 9]: 2.15 ± 0.42 %ID/g
tissue uptake at 4 h ([2]; kidneys, 40 nmol, 40 nmol NeoBOMB1, in vivo GRPR-blockade): 3.95 ± 0.94 %ID/g
tissue uptake at 4 h ([2]; liver, 10 pmol, 10 pmol peptide (3.7 MBq/nmol) iv): 3.37 ± 0.19 %ID/g
tissue uptake at 1 h [2, 10]: 25.7 ± 1.97 %ID/g
tissue uptake at 4 h ([2]; liver, 200 pmol, 200 pmol peptide (0.185 MBq/nmol) iv, Table 1 dose study): 6.5 ± 0.34 %ID/g
tissue uptake at 4 h [2, 10]: 7.05 ± 0.31 %ID/g
tissue uptake at 24 h [2, 10]: 2.26 ± 0.18 %ID/g
tissue uptake at 4 h ([2]; liver, 40 nmol, 40 nmol NeoBOMB1, in vivo GRPR-blockade): 9.67 ± 0.75 %ID/g
tissue uptake at 4 h ([2]; lungs, 10 pmol, 10 pmol peptide (3.7 MBq/nmol) iv): 0.5 ± 0.06 %ID/g
tissue uptake at 1 h [2, 11]: 2.88 ± 0.2 %ID/g
tissue uptake at 4 h ([2]; lungs, 200 pmol, 200 pmol peptide (0.185 MBq/nmol) iv, Table 1 dose study): 0.43 ± 0.06 %ID/g
tissue uptake at 4 h [2, 11]: 0.47 ± 0.04 %ID/g
tissue uptake at 24 h [2, 11]: 0.15 ± 0.02 %ID/g
tissue uptake at 4 h ([2]; lungs, 40 nmol, 40 nmol NeoBOMB1, in vivo GRPR-blockade): 0.42 ± 0.02 %ID/g
tissue uptake at 4 h ([2]; muscle, 10 pmol, 10 pmol peptide (3.7 MBq/nmol) iv): 0.1 ± 0.03 %ID/g
tissue uptake at 1 h [2, 12]: 0.58 ± 0.11 %ID/g
tissue uptake at 4 h ([2]; muscle, 200 pmol, 200 pmol peptide (0.185 MBq/nmol) iv, Table 1 dose study): 0.12 ± 0.01 %ID/g
tissue uptake at 4 h [2, 12]: 0.17 %ID/g
tissue uptake at 24 h [2, 12]: 0.13 ± 0.01 %ID/g
tissue uptake at 4 h ([2]; muscle, 40 nmol, 40 nmol NeoBOMB1, in vivo GRPR-blockade): 0.16 ± 0.06 %ID/g
tissue uptake at 4 h ([2]; pancreas, 10 pmol, 10 pmol peptide (3.7 MBq/nmol) iv): 206 ± 17.4 %ID/g
tissue uptake at 1 h [2, 13]: 32.5 ± 0.78 %ID/g
tissue uptake at 4 h ([2]; pancreas, 200 pmol, 200 pmol peptide (0.185 MBq/nmol) iv, Table 1 dose study): 42.5 ± 1.31 %ID/g
tissue uptake at 4 h [2, 13]: 36.9 ± 3.58 %ID/g
tissue uptake at 24 h [2, 13]: 21.3 ± 2.77 %ID/g
tissue uptake at 4 h ([2]; pancreas, 40 nmol, 40 nmol NeoBOMB1, in vivo GRPR-blockade): 1.17 ± 0.11 %ID/g
tissue uptake at 4 h ([2]; spleen, 10 pmol, 10 pmol peptide (3.7 MBq/nmol) iv): 1.02 ± 0.09 %ID/g
tissue uptake at 1 h [2, 14]: 1.71 ± 0.5 %ID/g
tissue uptake at 4 h ([2]; spleen, 200 pmol, 200 pmol peptide (0.185 MBq/nmol) iv, Table 1 dose study): 0.7 ± 0.09 %ID/g
tissue uptake at 4 h [2, 14]: 0.89 ± 0.12 %ID/g
tissue uptake at 24 h [2, 14]: 0.46 ± 0.08 %ID/g
tissue uptake at 4 h ([2]; spleen, 40 nmol, 40 nmol NeoBOMB1, in vivo GRPR-blockade): 0.79 ± 0.11 %ID/g
tissue uptake at 1 h [2, 15]: 5.89 ± 1.02 %ID/g
tissue uptake at 4 h [2, 15]: 2.66 ± 0.16 %ID/g
tissue uptake at 24 h [2, 15]: 2.07 ± 0.43 %ID/g
tissue uptake at 4 h ([2]; stomach, 10 pmol, Stomach (not emptied), 10 pmol peptide (3.7 MBq/nmol) iv): 4.36 ± 0.56 %ID/g
tissue uptake at 4 h ([2]; stomach, 200 pmol, Stomach (not emptied), 200 pmol peptide (0.185 MBq/nmol) iv, Table 1 dose study): 2.38 ± 0.13 %ID/g
tissue uptake at 4 h ([2]; stomach, 40 nmol, Stomach (not emptied), 40 nmol NeoBOMB1, in vivo GRPR-blockade): 0.42 ± 0.1 %ID/g
tissue uptake at 4 h ([2]; whole blood, 10 pmol, Blood, 10 pmol peptide (3.7 MBq/nmol) iv): 0.53 ± 0.04 %ID/g
tissue uptake at 4 h ([2]; whole blood, 200 pmol, Blood, 200 pmol peptide (0.185 MBq/nmol) iv, Table 1 dose study): 0.42 ± 0.06 %ID/g
tissue uptake at 4 h ([2]; whole blood, 40 nmol, Blood, 40 nmol NeoBOMB1, in vivo GRPR-blockade): 0.46 ± 0.03 %ID/g
Intact radioligand in mouse circulation ([3]; blood collected 5 min pi): 98%
Intact radioligand in mouse circulation ([3]; blood collected 30 min pi): 90%
